How the values were obtained:
[1] = Appearance of 1.5% peptide solutions with various salts at room temperature; format: physicochemical; conditions: for Appearance: room temperature
Procedure: The effect of salt ionic strength level on the properties of peptide solutions was evaluated to identify optimized salt ionic strength levels for the peptides as described herein. Increasing the salt ionic strength level of PuraMatrix® (SEQ ID NO:1) and other peptides may generally improve its function and mechanical strength for various clinical applications. To adjust the salt ionic strength of the peptide solutions by way of example, various salt buffer solutions including NaCl, KCl, MgCl2, CaCl2 and DPBS (10×) were added to 2 mL of 1.5% peptide solutions.

[2] = Rheological properties of peptide solutions at adjusted salt ionic strength; format: physicochemical
Procedure: Based on the visual observation of the effect of salt ionic strength on the properties of the peptide solutions, the effect on the rheological properties of the peptide solutions after adjusting their ionic strength level with NaCl to 0.7 M (PuraMatrix® (SEQ ID NO:1)), 0.2 M (KLD12 (SEQ ID NO:3)) or 0.02 M (IEIK13 (SEQ ID NO:2)), which is closely below the critical ionic strength at which each peptide becomes cloudy, was evaluated. If the ionic strength levels with NaCl of peptide solutions are higher than 0.9 M (PuraMatrix® (SEQ ID NO:1)), 0.3 M (KLD12 (SEQ ID NO:3)) or 0.03 M (IEIK13 (SEQ ID NO:2)), the peptide solutions begin phase separation becoming cloudy and weak. The rheological property of PuraMatrix® (SEQ ID NO:1), KLD12 (SEQ ID NO:3) and IEIK13 (SEQ ID NO:2) solutions was higher after adjusting their ionic strength level with NaCl to 0.7 M (PuraMatrix® (SEQ ID NO:1)), 0.2 M (KLD12 (SEQ ID NO:3)) or 0.02 M (IEIK13 (SEQ ID NO:2)). The results are shown in FIG. 10 for KLD12 (SEQ ID NO:3) 1%, FIG. 11 for IEIK13 (SEQ ID NO:2) 1%, and FIG. 12 for PuraMatrix® (SEQ ID NO:1) 1%, respectively. Frequency sweep tests were performed from 1 rad/s to 10 rad/s at 1 Pa.
Based on the results of the effect on the rheological properties of the peptide solutions after adjusting their ionic strength level with NaCl to 0.7 M (PuraMatrix® (SEQ ID NO:1)), 0.2 M (KLD12 (SEQ ID NO:3)) or 0.02 M (IEIK13 (SEQ ID NO:2)), the effect on the rheological properties of the peptide solution at various salt ionic strengths was evaluated. […] The results are shown in FIG. 13 for PuraMatrix® (SEQ ID NO:1) 1% solutions and in FIG. 14 for IEIK13 (SEQ ID NO:2) 1% solutions. Frequency sweep tests were performed from 1 rad/sec to 10 rad/sec at 1 Pa and the storage modulus at 1 rad/sec was selected for data.
Based on the results of the effect on the rheological properties of the peptide solutions and hydrogels after adjusting their ionic strength levels with NaCl, the effect of various salts (KCl, MgCl2, and CaCl2) was also evaluated. The rheological property of PuraMatrix® (SEQ ID NO:1) solutions increases with ionic strength adjustment at 0.15 M of all the salts. Increases of the rheological property of PuraMatrix® (SEQ ID NO:1) solutions with various salts were not predominantly different. However, increases of the rheological property of PuraMatrix® (SEQ ID NO:1) solutions may vary depending on the salting out constant, K of each salt. Constant K is a constant in Cohen's equation: log S=B−KI, where S is solubility, B is idealized solubility, K is salting out constant, and I is ionic strength. With a higher value of constant K and ionic strength of salts, solubility of the peptide may decrease resulting in strong peptide self-assembly with increased hydrophobic effect and higher rheological properties of the peptide solution. The constant K of NaCl may be higher than the other salts. […] The results are shown in FIG. 17 for PuraMatrix® (SEQ ID NO:1) 1% solution before DMEM treatment, and in FIG. 18 for PuraMatrix® (SEQ ID NO:1) 1% hydrogels after DMEM treatment for 10 min Frequency sweep tests were performed from 1 rad/sec to 10 rad/sec at 1 Pa and the storage modulus at 1 rad/sec was selected for data.

Ile-Glu-Ile-Lys-Ile-Glu-Ile-Lys-Ile-Glu-Ile-Lys-Ile [IEIK13]
critical salt ionic strengths at which peptides become cloudy [1]: 0.03˜0.04 M | Appearance ([1]; CaCl2 0 M, ionic strength 0 M, conc. 1.5%): Clear, thick gel | Appearance ([1]; CaCl2 0.005 M, ionic strength 0.015 M, conc. 1.46%): Clear, thick, stiffer gel | Appearance ([1]; CaCl2 0.0067 M, ionic strength 0.02 M, conc. 1.45%): Clear, thick, stiffer gel | Appearance ([1]; CaCl2 0.0083 M, ionic strength 0.025 M, conc. 1.44%): Clear, thick, stiffer gel | Appearance ([1]; CaCl2 0.01 M, ionic strength 0.03 M, conc. 1.43%): Clear, thick, stiffer gel | Appearance ([1]; CaCl2 0.0117 M, ionic strength 0.035 M, conc. 1.41%): Clear, thick, stiffer gel | Appearance ([1]; CaCl2 0.0133 M, ionic strength 0.04 M, conc. 1.40%): Slightly cloudy, thick, stiffer gel | Appearance ([1]; CaCl2 0.015 M, ionic strength 0.045 M, conc. 1.39%): Slightly cloudy, thick, stiffer gel | Appearance ([1]; CaCl2 0.0167 M, ionic strength 0.05 M, conc. 1.37%): Slightly cloudy, brittle gel | Appearance ([1]; CaCl2 0.0183 M, ionic strength 0.055 M, conc. 1.36%): Cloudy, phase-separated | Appearance ([1]; KCl 0 M, ionic strength 0 M, conc. 1.5%): Clear, thick gel | Appearance ([1]; KCl 0.005 M, ionic strength 0.005 M, conc. 1.46%): Clear, thick, stiffer gel | Appearance ([1]; KCl 0.01 M, ionic strength 0.01 M, conc. 1.43%): Clear, thick, stiffer gel | Appearance ([1]; KCl 0.015 M, ionic strength 0.015 M, conc. 1.39%): Clear, thick, stiffer gel | Appearance ([1]; KCl 0.02 M, ionic strength 0.02 M, conc. 1.35%): Clear, thick, stiffer gel | Appearance ([1]; KCl 0.025 M, ionic strength 0.025 M, conc. 1.31%): Clear, thick, stiffer gel | Appearance ([1]; KCl 0.03 M, ionic strength 0.03 M, conc. 1.27%): Clear, thick, stiffer gel | Appearance ([1]; KCl 0.035 M, ionic strength 0.035 M, conc. 1.24%): Slightly cloudy, brittle gel | Appearance ([1]; KCl 0.04 M, ionic strength 0.04 M, conc. 1.2%): Slightly cloudy, brittle | Appearance ([1]; KCl 0.045 M, ionic strength 0.045 M, conc. 1.16%): Cloudy, phase-separated | Appearance ([1]; MgCl2 0 M, ionic strength 0 M, conc. 1.5%): Clear, thick gel | Appearance ([1]; MgCl2 0.005 M, ionic strength 0.015 M, conc. 1.46%): Clear, thick, stiffer gel | Appearance ([1]; MgCl2 0.0067 M, ionic strength 0.02 M, conc. 1.45%): Clear, thick, stiffer gel | Appearance ([1]; MgCl2 0.0083 M, ionic strength 0.025 M, conc. 1.44%): Clear, thick, stiffer gel | Appearance ([1]; MgCl2 0.01 M, ionic strength 0.03 M, conc. 1.43%): Clear, thick, stiffer gel | Appearance ([1]; MgCl2 0.0117 M, ionic strength 0.035 M, conc. 1.41%): Clear, thick, stiffer gel | Appearance ([1]; MgCl2 0.0133 M, ionic strength 0.04 M, conc. 1.40%): Slightly cloudy, thick, stiffer gel | Appearance ([1]; MgCl2 0.015 M, ionic strength 0.045 M, conc. 1.39%): Slightly cloudy, stiffer gel | Appearance ([1]; MgCl2 0.0167 M, ionic strength 0.05 M, conc. 1.37%): Slightly cloudy, brittle gel | Appearance ([1]; MgCl2 0.0183 M, ionic strength 0.055 M, conc. 1.36%): Cloudy, phase-separated | Appearance ([1]; NaCl 0 M, ionic strength 0 M, conc. 1.5%): Clear, thick gel | Appearance ([1]; NaCl 0.005 M, ionic strength 0.005 M, conc. 1.46%): Clear, thick, stiffer gel | Appearance ([1]; NaCl 0.01 M, ionic strength 0.01 M, conc. 1.43%): Clear, thick, stiffer gel | Appearance ([1]; NaCl 0.015 M, ionic strength 0.015 M, conc. 1.39%): Clear, thick, stiffer gel | Appearance ([1]; NaCl 0.02 M, ionic strength 0.02 M, conc. 1.35%): Clear, thick, stiffer gel | Appearance ([1]; NaCl 0.025 M, ionic strength 0.025 M, conc. 1.31%): Clear, thick, stiffer gel | Appearance ([1]; NaCl 0.03 M, ionic strength 0.03 M, conc. 1.27%): Slightly cloudy, thick, stiffer gel | Appearance ([1]; NaCl 0.035 M, ionic strength 0.035 M, conc. 1.24%): Slightly cloudy, brittle gel | Appearance ([1]; NaCl 0.04 M, ionic strength 0.04 M, conc. 1.2%): Cloudy, phase-separated | salt ionic strength increase that did not change the clear color, while apparent stiffness increased ([1]; depending on different salts, 1.5% peptide solutions): 0.025˜0.035 M | ionic strength up to which the rheological property of 1% solutions increases (decreases above) ([2]; 1% solutions, storage modulus at 1 rad/sec): up to 0.03 M | ionic strength level with NaCl above which solutions begin phase separation becoming cloudy and weak ([2]; NaCl): > 0.03 M | rheological property after adjusting ionic strength level with NaCl ([2]; NaCl to 0.7 M (PuraMatrix), 0.2 M (KLD12) or 0.02 M (IEIK13), 1% solutions): higher
